# Data reported in paper PMC5483954, “Different specificities of two aldehyde dehydrogenases from Saccharomyces cerevisiae var. boulardii” (Bioscience Reports, 2017).
# B1: Saccharomyces cerevisiae var. boulardii cytosolic aldehyde dehydrogenase Ald6p (wild-type) (enzyme, UniProt P54115 1-500, looked up)
# chain: MTKLHFDTAEPVKITLPNGLTYEQPTGLFINNKFMKAQDGKTYPVEDPSTENTVCEVSSATTEDVEYAIECADRAFHDTEWATQDPRERGRLLSKLADELESQIDLVSSIEALDNGKTLALARGDVTIAINCLRDAAAYADKVNGRTINTGDGYMNFTTLEPVGVCGQIIPWNFPIMMLAWKIAPALAMGNVCILKPAAVTPLNALYFASLCKKVGIPAGVVNIVPGPGRTVGAALTNDPRIRKLAFTGSTEVGKSVAVDSSESNLKKITLELGGKSAHLVFDDANIKKTLPNLVNGIFKNAGQICSSGSRIYVQEGIYDELLAAFKAYLETEIKVGNPFDKANFQGAITNRQQFDTIMNYIDIGKKEGAKILTGGEKVGDKGYFIRPTVFYDVNEDMRIVKEEIFGPVVTVAKFKTLEEGVEMANSSEFGLGSGIETESLSTGLKVAKMLKAGTVWINTYNDFDSRVPFGGVKQSGYGREMGEEVYHAYTEVKAVRIKL
# notes: Ald6p, cytosolic aldehyde dehydrogenase of S. cerevisiae var. boulardii NCYC 3264; differs from the S. cerevisiae S288c protein by valine for isoleucine at position 163; printed mass 54.4 kDa; Removal of the tag is not mentioned; also called cytosolic Ald6p; wild-type Ald6p; source: E. coli Rosetta (DE3), purified (cobalt agarose, dialysis)
# Legend:
# [1] = biological target: Saccharomyces cerevisiae var. boulardii mitochondrial aldehyde dehydrogenase Ald4p (Saccharomyces cerevisiae var. boulardii (NCYC 3264)) (UniProt P46367); assay: SEC; Sephacryl S-300, buffer G (50 mM Tris/HCl, 17 mM Tris-base, 150 mM NaCl, pH 7.4), 1 ml/min; 200 ul of 60 uM protein by the methods (legend: Ald4p ~20 uM, Ald6p ~60 uM); mass from calibration with standard proteins
# [2] = biological target: the molecule itself; assay: cross-linking; BS3 (50-800 uM) with 15 uM protein in 100 mM sodium phosphate pH 7.4, 30 C, 35 min; products on SDS/PAGE (10% gel)
# [3] = biological target: the molecule itself; assay: SDS/PAGE of the untreated purified protein (SDS- and heat-resistant oligomers); purified protein without cross-linker on SDS/PAGE (10% gel); band not reduced by additional DTT (2 mM)
# [4] = biological target: the molecule itself; assay: SEC; Sephacryl S-300, buffer G (50 mM Tris/HCl, 17 mM Tris-base, 150 mM NaCl, pH 7.4), 1 ml/min; 200 ul of 60 uM protein by the methods (legend: Ald4p ~20 uM, Ald6p ~60 uM); mass from calibration with standard proteins
molecule,measurement,setting,value
Saccharomyces cerevisiae var. boulardii mitochondrial aldehyde dehydrogenase Ald4p (from UniProt P46367 25-519) (enzyme),stoichiometry N,[1],3
B1,stoichiometry N,[2],2
same,stoichiometry N,[3],~4
same,stoichiometry N,[4],4
